Experimental data from the DeepSol protein solubility set.

Assay: soluble on expression in E. coli; label from the status in PepcDB or PDB records

| Sequence | soluble on expression in E. coli |
| --- | --- |
| MVTVREAKLEDIKDIAKVHVDSWRTTYHEIIPIDYLNSLNYKEFEDKWKSRSLKGVFVAQDEKGSVFGFASFGPIRSEQEGYDGELYAIYLLEERQRQGAGRALLAKGAEFLLQHGFSSMFVWVIEQNPSIIFYQAYSPERVAEDNFEIAGVRLKEVGLGWPDLSALKTLLNR | soluble |
| MVVLGRIAGPHGIRGQIKVIPFTEYVDGLMEYPVWCLSRDEKNWQIVRPATFFIHDNLLIVTLTGYSDRTSASELKGLLVAVPRSQLPPLSKDGEDGYYWTDLIGISVVNMQGEPLGTVAGLFETGANDVLRVRLSGSSKDELIPFVDQVIRQVDLESRQITVDWELGYLEHHHHHH | not soluble |
| MVYFYESKPTEYSTPYQIVMGKDKFENDLLIKWSYRELNYVWFHADKYSSGHVYLKLRPNEKTIDDIPQEVICDCLQLCKSESIQGNKMPQCTILITPWHNLRKNRYMNPGEVSFKSLRQCRKMECGARDNKILNRLAKTRVELFNNVEATLNEAKKTKNGDFFVNYIESNRSNLIEEEKLRKVAKKNQKKKNKQSKDEVTDDMQLEV | not soluble |
| MVYYIYHSAFVIEVEKSILIFDFYKFPSNKKKEKEEFFNRFIKRIDKKVYIFSTHSHSDHFNKEILTWLEMNENIKYILSDDIRIYKHKNFYFTKEGDSFELDNLKISTFGSTDLGSSFYVNTENKNIFHSGDLHFWHWEDDTPEEEKTMYDAYMVQLEKIKKLDRIDIAFVPVDPRLGVNTLEGVELFYKILKPKIIIPMHFSDDYSQMKNFIEKFKYNDDVKIIEIKDSMEKVLELEHHHHHH | not soluble |
| MWKIELSDWTDDEFKHIVDFFTNQNILQPLETRRVRYLEMLLFNRSFMIFFPNIIDNHPELFMPCKARPNPPDVPIAVRVFTFEDRKMVMRSELFKAINMKYPNRKPIEYNDVNGFLYAMELKDVFKNFGDLWHDIDFLNTPINRTNQKAVPIITSTGDFCIPGFRAFSEIFYLMSLIMRVFQKVKINSMHVLDDYIKILVSQLEPFLKSQCFITTDAFQKIEQEMCNYWKKFENIPVKDIRDVKRFTLNDLKKELKYLGITEAFPDVLVYADLAFPKLLESVSQNKLETIDMFEAVAECTYCCLLDKYLELVQVWFPQFGSHKMFCSILPPDPVDIFLGVSSSHKDLRRYIKGEDKENMKVKDTSNPQVMKNQRENPKSISKPEGNNSDTPTESGNSSSSKVESSMANCTDCSGVRKEMKTVQNVLKDVQTQLTTMKHKSEKFEKNMTGSVERSKKAEQRLQEEKLDHVKIQVEAKKKLELKLEEVETWKKQVSALWNCKSDHEALNTKLSKCVEKGKKLKEINEKVSNSRDQLSTKVFELKLQLNRELETAETLKNERKDSAKLRNEVNQLKDQLEREREIAYGLQEEASKLRVGTGKDVKRQILESENAQLRQEKQRREMEKSSLLETKMILSRQNEEQHKLIQSLMDQNHTEEGPSNHEDENGSYRKVLWKHQKIKDLYRKGEQQREAEEMVNKLISLNQHPEVQHISFLELESFKKQISDYLHTVEKNIQKIKRNDDFTNLEPLPEPPKMSDKFMRLYWNEMNKQPSTSDLPSAELDDTDQL | not soluble |
| MWKLQSPHSCVPMLVWDCSLHPPSQYCSPLFETAVAENINRLSSHCIKKKSIQRGEKMKKILKLLSCIVVLTIAGCLNQPPPSTLALWEKPGADKAMTQQALTKCGWKPVYASPDDMNSYASEFASVYECMKKAGFRYKLQDSKGIYFSPPAKSSSFLSNLMVAGYQQFMENESFGVSNSTKHERELMLRIEKEKKRQKTKKSLQR | not soluble |
| MWKTYTRYQAVYKKAQWPLTLYFDGECPLCAREIKVLRARAAADRLLFVDISDDAFDASLLGLTLPQMESSLHARFDDGTWVTGLDATLWSWRAAGLGKWVAPLSWPILRPLFTVLYRLFCRFRPHLAWLPHPDGGRRCSKGSCTVAESVVMKSEASAEKKIS | not soluble |
| MWQQAIGDALGITARNLKKFGDRFPHVSDGSNKYVLNDNTDWTDGFWSGILWLCYEYTGDEQYREGAVRTVASFRERLDRFENLDHHDIGFLYSLSAKAQWIVEKDESARKLALDAADVLMRRWRADAGIIQAWGPKGDPENGGRIIIDCLLNLPLLLWAGEQTGDPEYRRVAEAHALKSRRFLVRGDDSSYHTFYFDPENGNAIRGGTHQGNTDGSTWTRGQAWGIYGFALNSRYLGNADLLETAKRMARHFLARVPEDGVVYWDFEVPQEPSSYRDSSASAITACGLLEIASQLDESDPERQRFIDAAKTTVTALRDGYAERDDGEAEGFIRRGSYHVRGGISPDDYTIWGDYYYLEALLRLERGVTGYWYERGR | soluble |
| MYAIAEDTLPARVLKELLLYRRRYPEHRQSASEADEIRRIEQVQLPRIAAFIEAGEPIEFVLPAFPAKSPNPGKVLDSRPDMAERLSLSFLNHLCQRIQLFYAPGAKITVCSDGRVFGDLVRIGDAHISAYQDALRLMIEEIGATHIGVFNLEDVRAFEAQRDNHEQLRQLLIGGYAEPLESIRETLLASEEGLLLYRAITRFLYEDGLTPDYQGSKTALQRDAKERAYGVIQRSWAWGALLADQFPRAIRLSIHPQPADSLKFGIHMMPTRDDWLTPWHGVAVNTEDRFVLMKRSEVLELGGELVQINGQPSHYRLPARAARRAAVALEHHHHHH | not soluble |
| MYAKANNRTVLSFSEQQIIDCGNFTSPCQENILSHEFIKKNGVVTEADYPYVGKENEKCKYDENKIKLWPTNMLLVGNLPETLLKLFIKEHGPGYFRMKAPPSFFNYKTGIYSPTQEECGKATDARSLTIVGYGIEGGQNYWIVKGSFGT | not soluble |
| MYDFVIIGGGIIGMSTAMQLIDVYPDARIALLEKESAPACHQTGHNSGVIHAGVYYTPGSLKAQFCLAGNRATKAFCDQNGIRYDNCGKMLVATSDLEMERMRALWERTAANGIEREWLNADELREREPNITGLGGIFVPSSGIVSYRDVTAAMAKIFQSRGGEIIYNAEVSGLNEHKNGVVIRTRQGGEYEASTLISCSGLMADRLVKMLGLEPGFIICPFRGEYFRLAPEHNQIVNHLIYPIPDPAMPFLGVHLTRMIDGSVTVGPNAVLAFKREGYRKRDFSFSDTLEILGSSGIRRVLQNHLRSGLGEMKNSLCKSGYLRLVQKYCPRLSLSDLQPWPAGVRAQAVSPDGKLIDDFLFVTTPRTIHTCNAPSPAATSAIPIGAHIVSKVQTLLASQSNPGRTLRAARSVDALHAAFNQ | not soluble |
| MYFIGCGYNAFPVGSEYADFPHMDDKHKDREIRKFRYIIHAEQNALTFRCQDIKPEEHSMIFVTKCPCDECVPLIKGAGIKQIYAGDVDVGKKKADISYMKFGELEGVRKFTWQLNPSEAYSLDPNEPERREKHLSIKRSH | not soluble |
| MYFLTSSLPTTLMNVALTSWARAFAINVFPQPGGPYKRTPFGGSIPTSSKSSGCLRGSSMASLNSCSCFFKPPISLYVTFGLSMTSNPSTVGSLDVGSISTTAIVLLEHHHHHH | not soluble |
| MYFPIVALIGRYQDTGLDAPLTALAQMLTQAGRRVLVEAETARNAGVSGYPVADWDEIGRTATLAVVMGGDGTVLGAARHLAPYGVPLIGINHGRLGFITDIPLQDAHDALGRVLEGNYQAEDRMLLQGGVWRGEQQMYSASAVNDVVLNRAGRGGMIEVRVELDGAFMYTQRADGLIIATPTGSTAYSLSANGPILHPGMNAMVLVPVAPQTLSNRPIVIPDSGVLNMTLTAMGRVEIGASVHFDMQTWSDLQPGDRITVQRAPHIIRFVHPEGYSFFSTLRRKLHWNLMPQATDNLELEHHHHHH | not soluble |
| MYFVDRTAVVLKPTARFLEWLKSTDENMPDLTIEQLRANCSVFLVPQFDEPEAVVSYFDERYRQIFEAELAGWDIDKDKWPQDMGLKAFWEFFDIEIHDIVLNMEEAELNITPVFDNMM | soluble |
| MYHSLFESLCMVPDPRIERKKIYPLDFLLLIVFLSTLSGNTSWYEIEDYAEEYEEELKSLYEMLTGHQLMHTMPSHDTLNRSISLLDVEAFEGAYKRWIEGFISATSGKHICIDGKTMRGVKKLSFDTQSHVVSAFSPQDMCSLAQLYIDRKTNEIPAIHQLLDLLDLNGAVVSIDAIGTQTAIAEQIIDKGGNYVLCVKANQSLSLQEIEAYFCPLFQKHILLDEQTELSHGRIETRRYESILNPLEIEANEVLTRWKGLRSIHKVVRKRRDKKSDKTSEEVAYYISSLTDVSSLKQAIRGHWAIENKLHHCLDVYFGHDASHKRTRNVAQIMDIIQKINLLIIERLKTNMKSSIPRIQKKLARMKPQQLITIQF | not soluble |
| MYIGGTGVEGYHHLFKEILDNAVDEALAGYATEILVRLNEDGSLTVEDNGRGIPVDLMPEEGKPAVEVIYTTLHSGGKFEQGAYKVSGGLHGVGASVVNALSEWTVVEVFREGKHHRIAFSRGEVTEPLRVVGEAPRGKTGTRVTFKPDPEIFGNLRFDPSKIRARLREVAYLVAGLKLVFQDRQHGKEEVFLDKGGVASFAKALAEGEDLLYEKPFLIRGTHGEVEVEVGFLHTQGYNAEILTYANMIPTRDGGTHLTAFKSAYSRALNQYAKKAGLNKEKGPQPTGDDLLEGLYAVVSVKLPNPQFEGQTKGKLLNPEAGTAVGQVVYERLLEILEENPRIAKAVYEKALRAAQAREAARKARELVRRQNPLESDELPGKLADCQTENPEEAELFIVEGDSAGGSAKQGRDRRFQAILPLRGKILNVEKAGLSKALKNAEVRAMVSAIGVGIGGDGEAHFDLEGLRYHKIIIMTDADVDGSHIRTLLLTFFYRYMRPLIERGHVYIAQPPLYRLQVGKKVEYLYSDEELQARLKELEGKHYEVQRFKGLGEMNPEQLWETTMNPEKRVLKRVELQDALEASELFEKLMGQEVAPRREFIEEHARYAELDI | soluble |
| MYIVIAGGGEMGGELARALEKTHDVVVIDRNPQARERFASLDVKVVVGGATDPDTLREAGVDRADLFVASTDSDEINLLASLLAKGLGAKEAFCFVGKGGYVEVLTDPRTAEILGTRIDRVLWPQRAMAREIVEVILVPWAVDTEVLAGGRLRFVEYRVKEGGEYVHRLLSGEKWPEGVLLAGVVREGTFLSFAHPEFPELILEPGDKLLFVATQKAFSELAAYFTEGPGVRRVMVIGGGNVGFMVAQGLLKRRVEVVIVERNAERCQWLSEELPGALVIQGDGTDIELLEAEGMAEADAVVAVTDHDEKNLLASLLAKQMGVRKVITRVSRSETRRLFEQVGIDLALTPRQAAVREVLDWIGPENVEHIATLDESIEVLEVLVSEGAAPKALRDLVRPDAVPVALERDHRIFLYEEGLGLLPGDRLYLVAAREVADEVLAPFFPE | soluble |
| MYKLDHLNHNTLDESSLELHETPKGYTNVALFGLDSRDGELSGGVRSDSIMIVSINNKTGDVKIISVYRDTLLKQQDGSYEKANAAYSFGGPQEAVAMLNRNLDLDITKYASVNFNSLADIIDILGGVEVELTSEEIFWLNGYTAETSQVVGRQTHTLDENSPGVHNLDGIQAVSYTRIRYTAGDDFKRAERQRIILQKMIQKLKTAGPVKWNKILDQVLPEISTNMTTPDIMKLGLNIFRYKIGETKGFPFDITTSENVIGLEGSYAVAIGHADNVRQLHEQLFGETGYQPSDEVQQISQDVAYLTGVLEHHHHHH | soluble |
| MYKQILVPVDLNDQGFSDRAVELAVWQAKQANAEIHLLTVLPGIHMSMVATYFPKDAAAKMKQDVKQQLKAFASEHIDDEVIYKVHVAEGKAYATILDYAERLGADLIIMPSHKRSKINKVMLGSVASKVVEYSPINVMVVKPQG | not soluble |
